B1: h_Nb12 (expressed from pFUSE-hIgG1-Fc) (Fc fusion)
chain: DVQLQESGGGLVQAGGSLRLSCAASGRTFSSRAMGWFRQAPGKEREFVAAISGSGRNTYYADSVKGRFTISRDNAKNSVNLQMNSLKPEDTAVYYCNAAGGGITIATMTQRTQYDYWGQGTQVTVSS
notes: not shown: human IgG1 Fc as encoded by the pFUSE-hIgG1-Fc vector
B2: h_Nb1 (expressed from pFUSE-hIgG1-Fc) (Fc fusion)
chain: DVQLQESGGGLVQPGGSLRLSCAASGFTFSSYAMSWVRQAPGKGLEWVSDINSGGDNTDYADSVKGRFTISRDNAKNTLYLQMNSLKPEDTAVYYCARGPKLCFSSWGQGTQVTVSS
notes: Candidates were cloned into pFUSE-mIgG2b-Fc and pFUSE-hIgG1-Fc; not shown: human IgG1 Fc as encoded by the pFUSE-hIgG1-Fc vector
B3: h_Nb6 (expressed from pFUSE-hIgG1-Fc) (Fc fusion)
chain: DVQLQESGGGLAQPGGSLRLSCAASGFTFSSYAMSWARQAPGKGLEWVAGIYRGGSDTYYADSVKGRFTISRDNTKNTLYLQMNSLKPEDTALYYCIQGWGLGYANYDYWGQGTQVTVSS
notes: as for B1
B4: h_Nb4 (expressed from pFUSE-hIgG1-Fc) (Fc fusion)
chain: DVQLQESGGGLVQAGGSLRLSCAAPSRMFSGYTMGWYRQAPGKQRELVAQIANGGFTDYIDSVKGRFSISRDTVLNMMYLQMNSLKPEDTAVYYCNLVLVNGIPTRNWGQGTQVTVSS
notes: as for B1
B5: h_Nb9 (expressed from pFUSE-hIgG1-Fc) (Fc fusion)
chain: DVQLQESGGGLVQPGGSLRLSCASSGSIFGLGVKGWYRQPPGNQREMVAQIISGGRISYADSVKGRFTISRDNAKNTVYLQMNSLKPEDTAVYYCNAWGPGQRNYWGRGTQVTVSS
notes: as for B1
B6: h_Nb13 (expressed from pFUSE-hIgG1-Fc) (Fc fusion)
chain: DVQLQESGGGLVQPGGSLRLSCAASGSIFSINAMGWYRQAPGKSRELVAAITSGGSTNYADSVKGRFTISRDTAKNTVYLLMNSLEPEDTAVYYCNVERRRPPHYLSEYDFDWGQGTQVTVSS
notes: as for B1
B7: h_Nb26 (expressed from pFUSE-hIgG1-Fc) (Fc fusion)
chain: DVQLQESGGGLVQPGGSLRLSCAAPGSIFRINAMGWYRQAPGKQRELVAAITSGGSTNYADSVQGRFTISRDNAKNTVYLQMNSLKPEDTAVYYCNVERRRPPHYYSDYDFDWGQGTQVTVSS
notes: as for B1
B8: h_Nb5 (expressed from pFUSE-hIgG1-Fc) (Fc fusion)
chain: DVQLQESGGGAVQSGESLRLSCAASGRDLMFYDVAWFRQAPGKEREGVSYIRSSGTLTKYADSVKGRFTISRDNDKNTVSLQMNSLNPEDTAKYYCAARLQSATSHSDLREDEFNSWGQGTQVTVSS
notes: as for B1
B9: h_Nb2 (expressed from pFUSE-hIgG1-Fc) (Fc fusion)
chain: DVQLQESGGGLVQPGGSLRLSCAASGFTFGDRWMYWLRQAPGKGLEWVSSINPAGRSTYYADSVKGRFTISRDNAKNTLYLQMNSLKSEDTAVYYCTKDPGGYQKGQGTQVTVSS
notes: as for B2
B10: h_Nb12 VHH (VHH)
VHH: DVQLQESGGGLVQAGGSLRLSCAASGRTFSSRAMGWFRQAPGKEREFVAAISGSGRNTYYADSVKGRFTISRDNAKNSVNLQMNSLKPEDTAVYYCNAAGGGITIATMTQRTQYDYWGQGTQVTVSS
B11: h_Nb9 VHH (VHH)
VHH: DVQLQESGGGLVQPGGSLRLSCASSGSIFGLGVKGWYRQPPGNQREMVAQIISGGRISYADSVKGRFTISRDNAKNTVYLQMNSLKPEDTAVYYCNAWGPGQRNYWGRGTQVTVSS

These binders were tested against T1, human PD-L1 on stably transfected cell line HEK293T/hPD-L1 (human, UniProt Q9NZQ7 19-290) (assay: flow cytometry on HEK293T/hPD-L1 cells, 10 ug/ml nanobody, anti-human IgG Fc (FITC)).
T1 construct: whole, on cells
Protocol: The stably transfected cell line HEK293T/hPD-L1 was digested and centrifuged, and the supernatant was removed. The cells were washed once with PBS and the cell density was adjusted to 2.5×10⁶ cells/mL. 100 μL of cell suspension was added to each cell sample, i.e., 2.5×10⁵ cells/sample. Different anti-human PD-L1 candidate nanobodies (at a concentration of 10 μg/ml) were added into the samples. The samples were incubated in a 4° C. refrigerator for 20 min and then centrifuged to remove the supernatant, and washed once with PBS. The diluted antibody anti-human IgG Fc (FITC) was used as a secondary antibody to resuspend the above cells. The abtained samples were incubated in a 4° C. refrigerator for 20 min and centrifuged to remove the supernatant. The cells were washed twice with PBS, transferred to a flow tube; and detected on a flow cytometer to obtain the binding activity of the candidate nanobody with human PD-L1, as shown in FIG. 1.

T1 sequence (Q9NZQ7 19-290): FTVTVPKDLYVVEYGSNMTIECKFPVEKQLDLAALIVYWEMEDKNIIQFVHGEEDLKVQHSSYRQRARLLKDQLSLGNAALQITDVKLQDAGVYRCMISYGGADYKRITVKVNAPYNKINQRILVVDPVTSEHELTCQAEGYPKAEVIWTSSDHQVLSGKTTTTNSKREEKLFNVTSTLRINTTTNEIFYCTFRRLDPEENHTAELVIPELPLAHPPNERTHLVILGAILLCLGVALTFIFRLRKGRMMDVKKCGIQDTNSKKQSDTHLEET

Binding result, binds:
B1
B2
B3
B4
B5
B6
B7
B8
B9

What follows are binders tested against T2, human PD-L1 protein (ELISA antigen) (human, UniProt Q9NZQ7 19-238, limits assumed) (assay: ELISA; PD-L1 protein on NeutrAvidin plate, crude nanobody, anti-HA detection; positive = absorbance more than three times control).
T2 construct: also called PD-L1-biotin protein
Protocol: After several rounds of panning, TG1 competent cells in the logarithmic phase of growth were infected with the eluted phages, gradiently diluted and spread on the plate for overnight culture. 96 clones were picked and inoculated into a 96-well round-bottom plate with 100 μL of culture medium per well and left to be incubated overnight as the master plate. Then 10 μL of overnight cultured bacterial solution was pipetted into a 96-well deep-bottom plate with 1 mL of culture medium per well to induce nanobody expression which was then subjected to crude purification. The 96-well ELISA plate was coated with 5 μg/mL NeutrAvidin solution at 4° C., 700 rpm, overnight. The next day, 2% skim milk powder was added to block the plate at room temperature and washed 3 times with a solution containing bovine serum albumin BSA. 100 μL 3 μg/mL PD-L1 protein was added and incubated at room temperature for 30 minutes, then washed. The crudely extracted nanobody was added and incubated at room temperature for 1 h followed by washing. Mouse anti-HA primary antibody was added and the mixture was incubated at room temperature for 1 hour followed by washing. Goat anti-mouse alkaline phosphatase-labeled secondary antibody was added and the mixture was incubated at room temperature for 1 hour followed by washing. Alkaline phosphatase colorimetric solution was added for 10 minutes, and the absorption value was detected at 405 nm on a microplate reader. A well with an absorption value that is more than three times the absorption value of the control group is preliminarily determined as a positive well. The positive clones were transferred to a shaking tube for culture in order to extract the plasmid and then subjected to sequencing. Finally, 11 candidate positive clones were obtained.

T2 sequence (Q9NZQ7 19-238 limits assumed): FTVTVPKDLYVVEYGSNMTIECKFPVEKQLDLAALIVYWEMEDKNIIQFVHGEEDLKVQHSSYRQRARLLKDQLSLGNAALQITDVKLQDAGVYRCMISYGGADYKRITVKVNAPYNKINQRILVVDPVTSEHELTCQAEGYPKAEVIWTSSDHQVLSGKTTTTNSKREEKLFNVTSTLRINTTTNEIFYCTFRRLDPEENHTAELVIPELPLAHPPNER

Binding result, binds:
B10
B11
